Where no end group is shown, it is not given here.
T1: αsyn(74-84)
T1 peptide: VTAVAQKTVEG

T2: αsyn(48-60)
T2 peptide: VVHGVATVAEKTK

T3: αsyn(87-95)
T3 peptide: SIAAATGFV

T4: αsyn(59-66)
T4 peptide: TKEQVTNV

T5: αsyn(35-45)
T5 peptide: EGVLYVGSKTK


Assays:
Assay in all cases: MST
αsyn(74-84) = molecular target: T1, αsyn(74-84)
αsyn(48-60) = molecular target: T2, αsyn(48-60)
αsyn(87-95) = molecular target: T3, αsyn(87-95)
αsyn(59-66) = molecular target: T4, αsyn(59-66)
αsyn(35-45) = molecular target: T5, αsyn(35-45)
α-Synuclein-V40R/V49R = molecular target: α-Synuclein-V40R/V49R
αSyn-SIM2(5A) = molecular target: αSyn-SIM2(5A)
αSyn-SIM1(5A) = molecular target: αSyn-SIM1(5A)
[1] = molecular target: human wild-type α-synuclein (full-length) (UniProt P37840 1-140)

Kd (αsyn(74-84)) | Kd (αsyn(48-60)) | Kd (αsyn(87-95)) | Kd (αsyn(59-66)) | Kd (αsyn(35-45)) | Kd (α-Synuclein-V40R/V49R) | Kd (αSyn-SIM2(5A)) | Kd (αSyn-SIM1(5A)) | Kd [1] | Binder
195 µM | 0.87 µM | 364 µM | 108 µM | 1.19 µM | 88.3 µM | 0.86 µM | 19.6 µM | – | DKKEGEYIKLKVIGQDSSEIHFKVKMTTHLKKLKESYCQRQ (also: Alexa Fluor 647 NHS ester on amines when used as MST target) [SUMO1(15-55)]
– | – | – | – | – | – | – | – | 2.32 µM | SSEIHFKVKMTTHLKKLKESYCQRQ [SUMO1(31-55)]
